From patent US20140294898A1 (published 2014) come the findings set out here.

Positions of bridges follow the written chain, without caps; N, C: chain ends. Non-standard residues stand in square brackets, D forms with d. NMeNle = CCCC[C@H](NC)C(=O)O; NMeA = CN[C@@H](C)C(=O)O; Sar = CNCC(=O)O

In this assay the target is T1, human PD-L1 (human, UniProt Q9NZQ7 19-239, limits assumed).
T1 construct: also called Hu PD-L1; hPD-L1
Kind of assay: cell binding assay, inhibition of Hu PD-L1/PD-1 binding.

T1 sequence (Q9NZQ7 19-239 limits assumed): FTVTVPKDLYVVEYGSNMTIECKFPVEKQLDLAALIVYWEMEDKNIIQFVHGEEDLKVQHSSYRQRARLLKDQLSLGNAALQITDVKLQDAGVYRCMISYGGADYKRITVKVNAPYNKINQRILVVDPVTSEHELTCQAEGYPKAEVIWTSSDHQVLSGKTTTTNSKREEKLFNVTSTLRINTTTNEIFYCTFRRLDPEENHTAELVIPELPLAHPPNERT

B1: Compound No. 15 (peptide)
peptide: {CH2CO}-F[NMeA]NPHL[Sar]ASW[NMeNle][NMeNle]RCG-NH2
modifications: thioether N-14
SMILES: CCCC[C@H]1C(=O)N(C)[C@@H](CCCC)C(=O)N[C@@H](CCCNC(=N)N)C(=O)N[C@H](C(=O)NCC(N)=O)CSCC(=O)N[C@@H](Cc2ccccc2)C(=O)N(C)[C@@H](C)C(=O)N[C@@H](CC(N)=O)C(=O)N2CCC[C@H]2C(=O)N[C@@H](Cc2c[nH]cn2)C(=O)N[C@@H](CC(C)C)C(=O)N(C)CC(=O)N[C@@H](C)C(=O)N[C@@H](CO)C(=O)N[C@@H](Cc2c[nH]c3ccccc23)C(=O)N1C
notes: macrocyclic peptide, Formula I series; also called Compound 15
For orientation: IC50 means the concentration at which inhibition is half-maximal. Higher therefore signals weaker potency in that assay. In turn, B1 returned an IC50 of 1910 nM.

B2: Compound No. 55 (peptide)
peptide: {CH2CO}-F[NMeA]NPHLPWSW[NMeNle][NMeNle]RCG-NH2
modifications: thioether N-14
SMILES: CCCC[C@H]1C(=O)N(C)[C@@H](CCCC)C(=O)N[C@@H](CCCNC(=N)N)C(=O)N[C@H](C(=O)NCC(N)=O)CSCC(=O)N[C@@H](Cc2ccccc2)C(=O)N(C)[C@@H](C)C(=O)N[C@@H](CC(N)=O)C(=O)N2CCC[C@H]2C(=O)N[C@@H](Cc2c[nH]cn2)C(=O)N[C@@H](CC(C)C)C(=O)N2CCC[C@H]2C(=O)N[C@@H](Cc2c[nH]c3ccccc23)C(=O)N[C@@H](CO)C(=O)N[C@@H](Cc2c[nH]c3ccccc23)C(=O)N1C
notes: macrocyclic peptide, Formula I series; also called Compound 55
Molecule B2 displayed an IC50 of 3 nM.

B3: Compound No. 30 (peptide)
peptide: {CH2CO}-Y[NMeA]NPHL[Sar]WSW[NMeNle][NMeNle]RCG-NH2
modifications: thioether N-14
SMILES: CCCC[C@H]1C(=O)N(C)[C@@H](CCCC)C(=O)N[C@@H](CCCNC(=N)N)C(=O)N[C@H](C(=O)NCC(N)=O)CSCC(=O)N[C@@H](Cc2ccc(O)cc2)C(=O)N(C)[C@@H](C)C(=O)N[C@@H](CC(N)=O)C(=O)N2CCC[C@H]2C(=O)N[C@@H](Cc2c[nH]cn2)C(=O)N[C@@H](CC(C)C)C(=O)N(C)CC(=O)N[C@@H](Cc2c[nH]c3ccccc23)C(=O)N[C@@H](CO)C(=O)N[C@@H](Cc2c[nH]c3ccccc23)C(=O)N1C
notes: macrocyclic peptide, Formula I series; also called Compound 30
B3: the IC50 came out at 3 nM.

B4: Compound No. 61 (peptide)
peptide: {CH2CO}-F[NMeA]NPHL[Sar]WSM[NMeNle][NMeNle]RCG-NH2
modifications: thioether N-14
SMILES: CCCC[C@H]1C(=O)N(C)[C@@H](CCCC)C(=O)N[C@@H](CCCNC(=N)N)C(=O)N[C@H](C(=O)NCC(N)=O)CSCC(=O)N[C@@H](Cc2ccccc2)C(=O)N(C)[C@@H](C)C(=O)N[C@@H](CC(N)=O)C(=O)N2CCC[C@H]2C(=O)N[C@@H](Cc2c[nH]cn2)C(=O)N[C@@H](CC(C)C)C(=O)N(C)CC(=O)N[C@@H](Cc2c[nH]c3ccccc23)C(=O)N[C@@H](CO)C(=O)N[C@@H](CCSC)C(=O)N1C
notes: macrocyclic peptide, Formula I series; also called Compound 61
With B4, the IC50 stood at 195 nM.

B5: Compound No. 54 (peptide)
peptide: {CH2CO}-F[NMeA]NPHLRWSW[NMeNle][NMeNle]RCG-NH2
modifications: thioether N-14
SMILES: CCCC[C@H]1C(=O)N(C)[C@@H](CCCC)C(=O)N[C@@H](CCCNC(=N)N)C(=O)N[C@H](C(=O)NCC(N)=O)CSCC(=O)N[C@@H](Cc2ccccc2)C(=O)N(C)[C@@H](C)C(=O)N[C@@H](CC(N)=O)C(=O)N2CCC[C@H]2C(=O)N[C@@H](Cc2c[nH]cn2)C(=O)N[C@@H](CC(C)C)C(=O)N[C@@H](CCCNC(=N)N)C(=O)N[C@@H](Cc2c[nH]c3ccccc23)C(=O)N[C@@H](CO)C(=O)N[C@@H](Cc2c[nH]c3ccccc23)C(=O)N1C
notes: macrocyclic peptide, Formula I series; also called Compound 54
In turn, B5 had an IC50 of 68 nM.

B6: Compound No. 25 (peptide)
peptide: {CH2CO}-W[NMeA]NPHL[Sar]WSW[NMeNle][NMeNle]RCG-NH2
modifications: thioether N-14
SMILES: CCCC[C@H]1C(=O)N(C)[C@@H](CCCC)C(=O)N[C@@H](CCCNC(=N)N)C(=O)N[C@H](C(=O)NCC(N)=O)CSCC(=O)N[C@@H](Cc2c[nH]c3ccccc23)C(=O)N(C)[C@@H](C)C(=O)N[C@@H](CC(N)=O)C(=O)N2CCC[C@H]2C(=O)N[C@@H](Cc2c[nH]cn2)C(=O)N[C@@H](CC(C)C)C(=O)N(C)CC(=O)N[C@@H](Cc2c[nH]c3ccccc23)C(=O)N[C@@H](CO)C(=O)N[C@@H](Cc2c[nH]c3ccccc23)C(=O)N1C
notes: macrocyclic peptide, Formula I series; also called Compound 25
With B6, the IC50 was determined as 19 nM.

B7: Compound No. 22 (peptide)
peptide: {CH2CO}-F[NMeA]NPHL[Sar]WSW[NMeNle][NMeNle]ACG-NH2
modifications: thioether N-14
SMILES: CCCC[C@H]1C(=O)N(C)[C@@H](CCCC)C(=O)N[C@@H](C)C(=O)N[C@H](C(=O)NCC(N)=O)CSCC(=O)N[C@@H](Cc2ccccc2)C(=O)N(C)[C@@H](C)C(=O)N[C@@H](CC(N)=O)C(=O)N2CCC[C@H]2C(=O)N[C@@H](Cc2c[nH]cn2)C(=O)N[C@@H](CC(C)C)C(=O)N(C)CC(=O)N[C@@H](Cc2c[nH]c3ccccc23)C(=O)N[C@@H](CO)C(=O)N[C@@H](Cc2c[nH]c3ccccc23)C(=O)N1C
notes: macrocyclic peptide, Formula I series; also called Compound 22
On to B7, for which the IC50 turned out to be 28 nM.

B8: Compound No. 51 (peptide)
peptide: {CH2CO}-F[NMeA]NPHD[Sar]WSW[NMeNle][NMeNle]RCG-NH2
modifications: thioether N-14
SMILES: CCCC[C@H]1C(=O)N(C)[C@@H](CCCC)C(=O)N[C@@H](CCCNC(=N)N)C(=O)N[C@H](C(=O)NCC(N)=O)CSCC(=O)N[C@@H](Cc2ccccc2)C(=O)N(C)[C@@H](C)C(=O)N[C@@H](CC(N)=O)C(=O)N2CCC[C@H]2C(=O)N[C@@H](Cc2c[nH]cn2)C(=O)N[C@@H](CC(=O)O)C(=O)N(C)CC(=O)N[C@@H](Cc2c[nH]c3ccccc23)C(=O)N[C@@H](CO)C(=O)N[C@@H](Cc2c[nH]c3ccccc23)C(=O)N1C
notes: macrocyclic peptide, Formula I series; also called Compound 51
For the molecule B8, the IC50 was 118 nM.

B9: Compound No. 62 (peptide)
peptide: {CH2CO}-F[NMeA]NPHL[Sar]WSI[NMeNle][NMeNle]RCG-NH2
modifications: thioether N-14
SMILES: CCCC[C@H]1C(=O)N(C)[C@@H](CCCC)C(=O)N[C@@H](CCCNC(=N)N)C(=O)N[C@H](C(=O)NCC(N)=O)CSCC(=O)N[C@@H](Cc2ccccc2)C(=O)N(C)[C@@H](C)C(=O)N[C@@H](CC(N)=O)C(=O)N2CCC[C@H]2C(=O)N[C@@H](Cc2c[nH]cn2)C(=O)N[C@@H](CC(C)C)C(=O)N(C)CC(=O)N[C@@H](Cc2c[nH]c3ccccc23)C(=O)N[C@@H](CO)C(=O)N[C@@H]([C@@H](C)CC)C(=O)N1C
notes: macrocyclic peptide, Formula I series; also called Compound 62
B9: the IC50 was determined as 3410 nM.

B10: Compound No. 43 (peptide)
peptide: {CH2CO}-F[NMeA]GPHL[Sar]WSW[NMeNle][NMeNle]RCG-NH2
modifications: thioether N-14
SMILES: CCCC[C@H]1C(=O)N(C)[C@@H](CCCC)C(=O)N[C@@H](CCCNC(=N)N)C(=O)N[C@H](C(=O)NCC(N)=O)CSCC(=O)N[C@@H](Cc2ccccc2)C(=O)N(C)[C@@H](C)C(=O)NCC(=O)N2CCC[C@H]2C(=O)N[C@@H](Cc2c[nH]cn2)C(=O)N[C@@H](CC(C)C)C(=O)N(C)CC(=O)N[C@@H](Cc2c[nH]c3ccccc23)C(=O)N[C@@H](CO)C(=O)N[C@@H](Cc2c[nH]c3ccccc23)C(=O)N1C
notes: macrocyclic peptide, Formula I series; also called Compound 43
B10 yielded an IC50 of 5330 nM.

B11: Compound No. 53 (peptide)
peptide: {CH2CO}-F[NMeA]NPHLHWSW[NMeNle][NMeNle]RCG-NH2
modifications: thioether N-14
SMILES: CCCC[C@H]1C(=O)N(C)[C@@H](CCCC)C(=O)N[C@@H](CCCNC(=N)N)C(=O)N[C@H](C(=O)NCC(N)=O)CSCC(=O)N[C@@H](Cc2ccccc2)C(=O)N(C)[C@@H](C)C(=O)N[C@@H](CC(N)=O)C(=O)N2CCC[C@H]2C(=O)N[C@@H](Cc2c[nH]cn2)C(=O)N[C@@H](CC(C)C)C(=O)N[C@@H](Cc2c[nH]cn2)C(=O)N[C@@H](Cc2c[nH]c3ccccc23)C(=O)N[C@@H](CO)C(=O)N[C@@H](Cc2c[nH]c3ccccc23)C(=O)N1C
notes: macrocyclic peptide, Formula I series; also called Compound 53
Consider B11, for which the IC50 was 47 nM.

B12: Compound No. 16 (peptide)
peptide: {CH2CO}-F[NMeA]NPHL[Sar]WAW[NMeNle][NMeNle]RCG-NH2
modifications: thioether N-14
SMILES: CCCC[C@H]1C(=O)N(C)[C@@H](CCCC)C(=O)N[C@@H](CCCNC(=N)N)C(=O)N[C@H](C(=O)NCC(N)=O)CSCC(=O)N[C@@H](Cc2ccccc2)C(=O)N(C)[C@@H](C)C(=O)N[C@@H](CC(N)=O)C(=O)N2CCC[C@H]2C(=O)N[C@@H](Cc2c[nH]cn2)C(=O)N[C@@H](CC(C)C)C(=O)N(C)CC(=O)N[C@@H](Cc2c[nH]c3ccccc23)C(=O)N[C@@H](C)C(=O)N[C@@H](Cc2c[nH]c3ccccc23)C(=O)N1C
notes: macrocyclic peptide, Formula I series; also called Compound 16
For B12, the 50% inhibitory concentration (IC50) came out at 13 nM.

B13: Compound No. 67 (peptide)
peptide: FANPHLGWSWFXRCG
HELM: PEPTIDE1{[O=C(C[*:3])[*:2]].F.[meA].N.P.H.L.[Sar].W.S.W.[meF].[CCCC[C@@H](C(=O)[*:2])N(C)[*:1]].R.C.G.[am]}$PEPTIDE1,PEPTIDE1,1:R3-15:R3$$$V2.0
SMILES: CCCC[C@H]1C(=O)N[C@@H](CCCNC(=N)N)C(=O)N[C@H](C(=O)NCC(N)=O)CSCC(=O)N[C@@H](Cc2ccccc2)C(=O)N(C)[C@@H](C)C(=O)N[C@@H](CC(N)=O)C(=O)N2CCC[C@H]2C(=O)N[C@@H](Cc2c[nH]cn2)C(=O)N[C@@H](CC(C)C)C(=O)N(C)CC(=O)N[C@@H](Cc2c[nH]c3ccccc23)C(=O)N[C@@H](CO)C(=O)N[C@@H](Cc2c[nH]c3ccccc23)C(=O)N(C)[C@@H](Cc2ccccc2)C(=O)N1C
notes: macrocyclic peptide, Formula I series; also called Compound 67
Take B13: the IC50 is 143 nM.

B14: Compound No. 19 (peptide)
peptide: FANPHLGWSWAXRCG
HELM: PEPTIDE1{[O=C(C[*:3])[*:2]].F.[meA].N.P.H.L.[Sar].W.S.W.[meA].[CCCC[C@@H](C(=O)[*:2])N(C)[*:1]].R.C.G.[am]}$PEPTIDE1,PEPTIDE1,1:R3-15:R3$$$V2.0
SMILES: CCCC[C@H]1C(=O)N[C@@H](CCCNC(=N)N)C(=O)N[C@H](C(=O)NCC(N)=O)CSCC(=O)N[C@@H](Cc2ccccc2)C(=O)N(C)[C@@H](C)C(=O)N[C@@H](CC(N)=O)C(=O)N2CCC[C@H]2C(=O)N[C@@H](Cc2c[nH]cn2)C(=O)N[C@@H](CC(C)C)C(=O)N(C)CC(=O)N[C@@H](Cc2c[nH]c3ccccc23)C(=O)N[C@@H](CO)C(=O)N[C@@H](Cc2c[nH]c3ccccc23)C(=O)N(C)[C@@H](C)C(=O)N1C
notes: macrocyclic peptide, Formula I series; also called Compound 19
Molecule B14 gave an IC50 of 134 nM.
